The target of experiment [1] is AA-SR-128 (SR-128), TIGIT ECD-CD28 TM-CD3z ICD. Briefly: cell-based or functional assay.
For experiment [2], the target named is AA-SR-113 (SR-113), TIGIT ECD-TIGIT TM-CD3z ICD. Kind of experiment: cell-based or functional assay.
AA-SR-113 (SR-113), TIGIT ECD-TIGIT TM-CD3z ICD, sequence (chain, as listed by the source limits assumed, form in doubt): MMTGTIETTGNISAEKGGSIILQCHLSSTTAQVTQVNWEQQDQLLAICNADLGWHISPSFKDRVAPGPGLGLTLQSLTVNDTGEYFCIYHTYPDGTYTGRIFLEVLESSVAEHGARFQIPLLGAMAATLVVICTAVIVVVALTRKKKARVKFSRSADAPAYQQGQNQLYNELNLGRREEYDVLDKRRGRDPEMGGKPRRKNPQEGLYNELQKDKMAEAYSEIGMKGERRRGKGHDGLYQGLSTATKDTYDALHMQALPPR

AA-SR-128 (SR-128), TIGIT ECD-CD28 TM-CD3z ICD, sequence (chain, as listed by the source limits assumed, form in doubt): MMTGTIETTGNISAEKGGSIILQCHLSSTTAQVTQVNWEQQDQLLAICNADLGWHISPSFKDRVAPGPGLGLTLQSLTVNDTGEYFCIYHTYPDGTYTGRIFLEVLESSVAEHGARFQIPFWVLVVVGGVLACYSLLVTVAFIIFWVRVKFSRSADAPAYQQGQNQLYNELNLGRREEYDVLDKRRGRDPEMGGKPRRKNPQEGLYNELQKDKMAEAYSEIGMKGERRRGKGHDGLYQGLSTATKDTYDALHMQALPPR

Take anti-TIGIT mAb clone A15153G (antibody): in experiment [1], the CD69, fold-change of MFI over no stimulation, High (10 ug/mL) turned out to be 3.4 fold; the CD69, fold-change of MFI over no stimulation, Low (0.4 ug/mL) amounted to 1.2 fold; the CD69, fold-change of MFI over no stimulation, Med. (2 ug/mL) is 2.6 fold; the GFP, fold-change of MFI over no stimulation, High (10 ug/mL) was found to be 1.7 fold. Moreover, in experiment [1], the GFP, fold-change of MFI over no stimulation, Low (0.4 ug/mL) stood at 0.6 fold and the GFP, fold-change of MFI over no stimulation, Med. (2 ug/mL) was found to be 1.2 fold. In experiment [2], this substance showed a CD69, fold-change of MFI over no stimulation, High (10 ug/mL) of 17.1 fold; a CD69, fold-change of MFI over no stimulation, Low (0.4 ug/mL) of 7.2 fold; a CD69, fold-change of MFI over no stimulation, Med. (2 ug/mL) of 17.1 fold; a GFP, fold-change of MFI over no stimulation, High (10 ug/mL) of 4.6 fold. In experiment [2], the GFP, fold-change of MFI over no stimulation, Low (0.4 ug/mL) came to 0.9 fold and the GFP, fold-change of MFI over no stimulation, Med. (2 ug/mL) was 2.2 fold.

Values taken from US20260055162A1.
